Source: US12312417B2, “Binding proteins 1” (Nucleus Therapeutics Pty. Ltd., priority 2017, dated 2025)

How the values were obtained:
[1] = system: PTEN-deficient U87 human glioma cells; assay: Cell viability by Trypan blue exclusion assay; format: cell-based; conditions: 7 days after treatment; relative to control treated cells
Description: Cell viability of PTEN-deficient U87 human glioma cells was also assessed following treatment with control media or media containing Variants 10, 13, 15, or 16. Cell viability was determined 7 days after treatment using Trypan blue exclusion assay and by direct visualization of cell morphology by light microscopy.

[2] = system: Primary human glioblastoma (GBM) cancer cells; assay: Live cells by trypan blue staining in primary GBM explants; format: cell-based; conditions: seven patient explants; percentage of live cells by trypan blue
Description: Primary human glioblastoma (GBM) cancer cells extracted from primary human GBM tumours from patients were treated with control or di-scFv (SEQ ID NO: 41), and percentage of live cells was evaluated by trypan blue staining.

[3] = system: HDR-proficient DLD1 cells; assay: Cell death in HDR-proficient cells, di-scFv with PARP inhibitor; format: cell-based; conditions: 5 nM olaparib, 10 μM di-scFv, or both
Description: Homology-directed repair (HDR) deficient BRCA2-DLD1 cells and PTEN-U251 cells were treated with control, 5 nM olaparib, 10 μM di-scFv, or 10 μM di-scFv+5 nM olaparib. Surviving fraction was determined by colony formation assay.
It was then determined whether the combination of di-scFv and olaparib is simply universally cytotoxic, regardless of DNA repair status. To evaluate this possibility, HDR-proficient DLD1 cells were treated with the above regimen to confirm selectivity of combination therapy to HDR-deficient malignant cells.

[4] = system: human GBM cancer stem cells (CSCs) grown as tumour spheres; assay: GBM tumour sphere penetration and sphere volume; format: cell-based
Description: GBM cancer stem cells extracted from primary human GBM tumours from patients and grown as spheres were treated with control or di-scFv (SEQ ID NO: 41), and the effect of dose and incubation time on reduction of sphere volume was evaluated by confocal micrographs of DX1-rhodamine cellular penetration into GBM cells. Tumour spheres are recognised as a useful tool for pre-clinical studies as they retain tumour heterogeneity and more closely represent the original patient tumour.

[5] = system: BRCA2-deficient DLD1 colon cancer cells; assay: Phospho-53BP1 foci accumulation; format: cell-based
Description: (§1) A matched pair of BRCA2-proficient and deficient DLD1 colon cancer cells and PTEN-proficient and deficient U251 human glioma cells were treated with control media or media containing 10 μM di-scFv variant 13 (SEQ ID NO: 41), 5 nM olaparib, or combination treatment.

[6] = system: PTEN-deficient U251 human glioma cells; assay: Phospho-53BP1 foci accumulation (DNA damage); format: cell-based; conditions: for mean number of phospho-53BP1 foci per cell: PTEN-deficient U251
Description: A matched pair of PTEN-proficient and deficient U251 human glioma cells were treated with control media or media containing Variant 10, 11, 13, 15, or 16 for twenty-four hours. Cells were then washed, fixed, blocked, and then probed with an anti-phospho-53BP1 antibody overnight. Cells were then washed and incubated with an AlexaFluor555-conjugated secondary antibody. Finally, cells were washed, counterstained with DAPI, and visualized under a fluorescence microscope. Images were saved and evaluated by CellProfiler to determine mean number of phospho-53BP1 foci per cell.
as §1

[7] = system: GBM cells extracted from human GBM tumours; assay: Orthotopic mouse model of GBM; format: in vivo
Description: An orthotopic mouse model of GBM was generated by intracranial injection of GBM cells extracted from human GBM tumours. Once the tumours developed in the brain, mice were treated by tail vein injection of control or di-scFv variant 13 (SEQ ID NO: 41), and effect of di-scFv on reduction of tumour volume was evaluated by extraction of tumours. […] To confirm this, tumours and normal brain were probed for di-scFv by protein L immunostaining.
Mean survival data reflected these trends (83 days±3.2 days for di-scFv treated mice, 71 days±1.2 days for controls) (FIG. 16E). Statistical analysis indicated a significant difference between the two groups, with P value=0.004.

DLD1 colon cancer cells = assay: Alkaline phosphatase-based survey of nuclear penetration; format: cell-based; conditions: cells treated for one hour; right shift of histogram peak
Description: DLD1 colon cancer cells were treated with control media or each of the indicated variants for one hour. Cells were then washed, fixed, blocked with 1% BSA-TBST, and then probed with protein L for one hour. Cells were then washed and incubated with an anti-protein L primary antibody for one hour. After another round of washing cells were incubated with an alkaline phosphatase-conjugated secondary antibody for one hour. Finally, cells were washed and signal was developed by addition of NBT/BCIP. Dark stain indicates location of the variants.
Raw integrated density values reflecting nuclear alkaline phosphatase staining in the DLD1 cells from the experiment in FIG. 3 were obtained by analysis using ImageJ Boxplots of distributions of values are presented for each variant in FIG. 4.
Histogram plots of cell counts versus nuclear staining intensity (represented as reciprocal intensity in arbitrary units) are shown in FIG. 5.

MCF-7 cells = assay: Nuclear penetration by protein L immunostain of fixed cells; format: cell-based
Description: (§2) DLD-1 and MCF-7 cells were treated with control or di-scFv (SEQ ID NO: 41), and nuclear penetration was evaluated by protein L immunostain of fixed cells.

DLD-1 cells = assay: as above; format: cell-based
Description: as §2

[8] = system: BRCA2-proficient DLD1 colon cancer cells; assay: Cell viability by Trypan blue exclusion assay; format: cell-based; conditions: 7 days later
Description: (§3) Next, a matched pair of BRCA2-proficient and deficient DLD1 colon cancer cells was treated with control media or media containing Variants 10, 13, 15, or 16. Cell viability was determined 7 days later by Trypan blue exclusion assay and by direct visualization of cell morphology by light microscopy. […] Representative light microscope images shown the changes in morphology in the BRCA2-deficient cancer cells treated with the variants are shown in FIG. 10, Panel A. Quantitative analysis of the cell survival by Trypan blue exclusion assay is shown in FIG. 10, Panel B.

[9] = system: BRCA2-deficient DLD1 colon cancer cells; assay: Cell viability by Trypan blue exclusion assay; format: cell-based; conditions: 7 days later
Description: as §3

B1: Variant 13: cell penetrating anti-DNA humanized di-scFv, SEQ ID NO: 41 (protein)
scFv: DIQMTQSPSSLSASLGDRATITCRASKTVSTSSYSYMHWYQQKPGQPPKLLIKYASYLESGVPSRFSGSGSGTDFTLTISSLQPEDAATYYCQHSREFPWTFGGGTKVEIKRADAAPGGGGSGGGGSGGGGSEVQLVESGGGLVQPGGSLRLSCAASGFTFSNYGMHWVRQAPGKGLEWVSYISSGSSTIYYADSVKGRFTISRDNAKNSLYLQMNSLRAEDTAVYYCARRGLLLDYWGQGTTVTVSSASTKGPSVFPLAPLESSGSDIQMTQSPSSLSASLGDRATITCRASKTVSTSSYSYMHWYQQKPGQPPKLLIKYASYLESGVPSRFSGSGSGTDFTLTISSLQPEDAATYYCQHSREFPWTFGGGTKVEIKRADAAPGGGGSGGGGSGGGGSEVQLVESGGGLVQPGGSLRLSCAASGFTFSNYGMHWVRQAPGKGLEWVSYISSGSSTIYYADSVKGRFTISRDNAKNSLYLQMNSLRAEDTAVYYCARRGLLLDYWGQGTTVTVSS
modifications: Variant 13
cell viability [1]: reductions in cell viability | glioblastoma tumour explants showing significant cancer cell death [2]: Five of the seven | cell death [3]: No effect on cell death | cellular penetration in GBM spheres ([4]; confocal micrographs, DX1-rhodamine): demonstrated cellular penetration in GBM spheres | sphere volume ([4]; effect of dose and incubation time): reduced sphere volume in dose-dependent and time-dependant manner | mean number of phospho-53BP1 foci per cell ([5]; BRCA2-deficient DLD1, 10 μM di-scFv, 5 nM olaparib): increased the number of phospho-53BP1 foci | percentage of P53BP1-positive cells ([5]; HDR-deficient DLD1, 24 hour): increased | percentage of P53BP1-positive cells ([6]; HDR-deficient U251, 24 hour): increased | mean number of phospho-53BP1 foci per cell ([6]; 10 μM di-scFv, 5 nM olaparib): increased the number of phospho-53BP1 foci | mean number of phospho-53BP1 foci per cell ([6]; twenty-four hours, vs control media): increased the number of foci | median survival ([7]; group of 7 mice): 87 days | median survival longer than controls ([7]; group of 7 mice, controls median 72 days): more than 20% | crossing of the blood brain barrier ([7]; mouse, in vivo): successfully crossed the blood brain barrier | di-scFv in GBM tumour cells by protein L immunostaining ([7]; mouse, in vivo): detected in the nuclei of GBM tumour cells | di-scFv in adjacent normal brain cells by protein L immunostaining ([7]; mouse, in vivo): not evident | toxicity or weight loss ([7]; survival study mice): No toxicity or weight loss | TUNEL staining (incidence of apoptosis in tumours) ([7]; tail vein injection): increased incidence of apoptosis | glioblastoma tumour size smaller than in control mice ([7]; tail vein injection, brain sections): more than 40% | nuclear penetration relative to the yeast prototype (histogram of cell counts versus nuclear staining intensity) (DLD1 colon cancer cells): notable right shift and narrowing of distributions | nuclear penetration (MCF-7 cells): successfully penetrated | nuclear penetration (DLD-1 cells): successfully penetrated | cell viability / toxicity [8]: not toxic | cell viability / toxicity [9]: killed by the variants
